The values below come from patent US5693758A, “Immunoglobulin E competitor” (501 Research Corporation Limited, priority 1987, dated 1997).

The test system of assay [1] is Fc receptors of mast cells. The settings on record: cited from earlier work; for blocking activity: reported by Bennich.
For assay [2], the system named is FcER2 positive RPMI 8866 B cells. The assay is described as follows: Indirect immunofluorescence binding of rE peptides to RPMI 8866 B cells (FACScan). The settings on record: for % positive cells: RPMI 8866 B cells, indirect immunofluorescence, 0.1-200 μg/ml ligand, 40 min 4° C., mean ±S.D. of 9 experiments; for binding to FcER2 positive RPMI 8866 B cells (in words): further indirect immunofluorescence studies. Also on record: species or system human. How it is done:
RPMl 8866 cells were incubated with different concentrations of rE peptides and indirect immuno-fluorescence was performed.
For indirect immunofluorescence the results of which are summarised in Table VII, 0.5×10^6 RPMI 8866 cells (>99% FcER2 positive) in staining buffer (RPMI 1640 - 2.5% fetal bovine serum, containing 0.01% azide) were incubated with various concentrations (0.1-200 μg/ml) of purified rE fragments or native IgE(PS) for 40 minutes at 4° C. After washing, the cells were incubated for 30 minutes at 4° C. with the appropriate fluorescein isothiocyanate (FITC)-conjugated anti-Fc mAB or with an affinity-purified goat anti-human IgE antibody (10 μg/ml). After extensive washing, the percentage of cells binding IgE or the rE fragments was evaluated by a FACScan (Becton Dickinson, Mountain View, Calif.).

Regarding “Asp-Ser-Asn-Pro-Arg (DSNPR; printed: Asp-Ser-Asn-Pro-Arg)”, the blocking activity entry in assay [1] is “neither of the peptides Asp-Ser-Asp-Pro-Arg nor Asp-Ser-Asn-Pro-Arg has any blocking activity”.

Turning to “Asp-Ser-Asp-Pro-Arg (DSDPR; printed: Asp-Ser-Asp-Pro-Arg) [HEPP, Human Immunoglobulin E Polypeptide, pentapeptide from IgE heavy chain 330 to 334]”, the blocking activity result in assay [1] is reported as “neither of the peptides Asp-Ser-Asp-Pro-Arg nor Asp-Ser-Asn-Pro-Arg has any blocking activity”. Moreover, the specific activity result in assay [1] (reported) is given as “low”.

B1: rE2: recombinant IgE peptide Asp 218-Val 336 (CH2) (protein, UniProt P01854 218-336, looked up, fragment)
chain: SAYLSRPSPFDLFIRKSPTITCLVVDLAPSKGTVNLTWSRASGKPVNHSTRKEEKQRNGTLTVTSTLPVGTRDWIEGETYQCRVTHPHLPRALMRSTTKTSGPRAAPEVYAFATPEWPG
Regarding B1, in assay [2], the “% positive cells” value turned out to be 2 ± 1% and the “binding to FcER2 positive RPMI 8866 B cells (in words)” value (“binding” below) is reported as “no detectable binding”.

B2: rE2'-3': recombinant IgE peptide Gln 301-Arg 376 (protein, UniProt P01854 301-376, looked up, fragment)
chain: VTHPHLPRALMRSTTKTSGPRAAPEVYAFATPEWPGSRDKRTLACLIQNFMPEDISVQWLHNEVQLPDARHSTTQP
For B2, in assay [2], the “% positive cells” value is on record as 2 ± 1% and the “binding” value is “no detectable binding”.

B3: rE2-3: recombinant IgE peptide Asp 218-Pro 439 (CH2 and CH3) (protein, UniProt P01854 218-439, looked up, fragment)
chain: SAYLSRPSPFDLFIRKSPTITCLVVDLAPSKGTVNLTWSRASGKPVNHSTRKEEKQRNGTLTVTSTLPVGTRDWIEGETYQCRVTHPHLPRALMRSTTKTSGPRAAPEVYAFATPEWPGSRDKRTLACLIQNFMPEDISVQWLHNEVQLPDARHSTTQPRKTKGSGFFVFSRLEVTRAEWEQKDEFICRAVHEAASPSQTVQRAVSVNPGLAGGSAQSQRAP
Take B3: in assay [2], the “% positive cells” value came out at 3 ± 1% and the “binding” value was “no detectable binding”.
